Tests used:
Experiment in all cases: EMSA
[1] = molecular target: SIM1;ARNT2 (SIM1 partner) (;, UniProt P81133;Q9HBZ2 1-348;1-455, |)
[2] = molecular target: HIF1a;ARNT (HIFa partner) (human?;human, UniProt Q16665;P27540 1-375;1-503, |)
[3] = molecular target: HIF2a;ARNT (HIFa partner) (human;human, UniProt Q99814;P27540 1-353;1-503, |)
[4] = molecular target: NPAS4;ARNT2 (NPAS4 partner) (mouse;mouse, UniProt Q8BGD7;Q61324 1-329;1-481, |)
Chain of NPAS4;ARNT2 (NPAS4 partner) (Q8BGD7 1-329, chain 1 of 2): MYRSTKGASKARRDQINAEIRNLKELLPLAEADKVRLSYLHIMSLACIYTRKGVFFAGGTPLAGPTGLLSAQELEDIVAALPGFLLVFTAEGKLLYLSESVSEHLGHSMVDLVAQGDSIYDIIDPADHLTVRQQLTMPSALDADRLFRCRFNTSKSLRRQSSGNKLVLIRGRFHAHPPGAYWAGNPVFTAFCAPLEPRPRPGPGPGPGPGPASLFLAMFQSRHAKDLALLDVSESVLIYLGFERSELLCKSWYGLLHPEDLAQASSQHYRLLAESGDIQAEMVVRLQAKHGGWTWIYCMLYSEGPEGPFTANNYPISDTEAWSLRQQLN
Chain of NPAS4;ARNT2 (NPAS4 partner) (Q61324 1-481, chain 2 of 2): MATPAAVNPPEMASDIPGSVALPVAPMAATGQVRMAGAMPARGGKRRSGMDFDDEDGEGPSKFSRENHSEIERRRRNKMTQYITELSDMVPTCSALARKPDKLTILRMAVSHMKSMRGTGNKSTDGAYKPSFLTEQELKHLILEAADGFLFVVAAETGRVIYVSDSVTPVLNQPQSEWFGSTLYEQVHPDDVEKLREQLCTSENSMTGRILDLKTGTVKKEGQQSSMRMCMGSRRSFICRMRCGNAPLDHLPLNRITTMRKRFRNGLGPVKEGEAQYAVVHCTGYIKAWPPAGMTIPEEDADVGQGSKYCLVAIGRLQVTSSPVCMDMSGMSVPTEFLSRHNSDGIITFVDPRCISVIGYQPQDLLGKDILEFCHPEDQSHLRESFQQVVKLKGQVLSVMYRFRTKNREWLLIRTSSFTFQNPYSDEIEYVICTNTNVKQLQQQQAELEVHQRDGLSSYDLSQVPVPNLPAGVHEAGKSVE

Chain of HIF1a;ARNT (HIFa partner) (P27540 1-503, chain 2 of 2, other chains not shown): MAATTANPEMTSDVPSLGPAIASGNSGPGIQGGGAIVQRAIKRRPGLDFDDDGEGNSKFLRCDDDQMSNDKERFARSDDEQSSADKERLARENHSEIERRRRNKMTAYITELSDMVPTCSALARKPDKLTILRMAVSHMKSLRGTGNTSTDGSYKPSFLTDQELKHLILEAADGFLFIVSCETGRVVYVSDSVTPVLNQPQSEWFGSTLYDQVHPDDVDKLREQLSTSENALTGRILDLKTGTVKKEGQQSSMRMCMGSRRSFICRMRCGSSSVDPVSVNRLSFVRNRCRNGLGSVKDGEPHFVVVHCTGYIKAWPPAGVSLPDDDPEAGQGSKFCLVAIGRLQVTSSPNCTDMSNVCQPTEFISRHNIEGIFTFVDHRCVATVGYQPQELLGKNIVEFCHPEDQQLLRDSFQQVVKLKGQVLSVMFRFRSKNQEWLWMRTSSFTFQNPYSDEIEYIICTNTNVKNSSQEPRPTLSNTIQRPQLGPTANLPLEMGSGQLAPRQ
Chain of HIF2a;ARNT (HIFa partner) (Q99814 1-353, chain 1 of 2): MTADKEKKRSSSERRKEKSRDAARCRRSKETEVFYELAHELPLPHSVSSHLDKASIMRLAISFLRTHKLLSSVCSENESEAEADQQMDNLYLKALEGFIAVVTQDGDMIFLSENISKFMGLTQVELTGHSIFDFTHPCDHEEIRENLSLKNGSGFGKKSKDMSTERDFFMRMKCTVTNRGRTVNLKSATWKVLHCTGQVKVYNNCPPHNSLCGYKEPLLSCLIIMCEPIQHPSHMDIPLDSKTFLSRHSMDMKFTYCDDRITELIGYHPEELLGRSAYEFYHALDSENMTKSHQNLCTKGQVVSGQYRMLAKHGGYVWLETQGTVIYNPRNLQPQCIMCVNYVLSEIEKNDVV
Chain of HIF2a;ARNT (HIFa partner) (P27540 1-503, chain 2 of 2): as the sequence (P27540 1-503, chain 2 of 2, other chains not shown) above
Chain of SIM1;ARNT2 (SIM1 partner) (P81133 1-348, chain 1 of 2): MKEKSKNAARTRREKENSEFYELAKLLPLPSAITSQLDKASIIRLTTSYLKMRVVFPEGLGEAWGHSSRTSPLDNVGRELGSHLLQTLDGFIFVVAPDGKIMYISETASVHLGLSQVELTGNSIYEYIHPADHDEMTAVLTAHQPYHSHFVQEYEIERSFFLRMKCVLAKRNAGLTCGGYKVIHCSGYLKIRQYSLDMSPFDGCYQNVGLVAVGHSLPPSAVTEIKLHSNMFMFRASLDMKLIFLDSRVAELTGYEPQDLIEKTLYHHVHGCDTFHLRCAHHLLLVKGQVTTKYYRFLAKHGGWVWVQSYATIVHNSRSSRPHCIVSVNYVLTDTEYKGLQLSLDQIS
Chain of SIM1;ARNT2 (SIM1 partner) (Q9HBZ2 1-455, chain 2 of 2): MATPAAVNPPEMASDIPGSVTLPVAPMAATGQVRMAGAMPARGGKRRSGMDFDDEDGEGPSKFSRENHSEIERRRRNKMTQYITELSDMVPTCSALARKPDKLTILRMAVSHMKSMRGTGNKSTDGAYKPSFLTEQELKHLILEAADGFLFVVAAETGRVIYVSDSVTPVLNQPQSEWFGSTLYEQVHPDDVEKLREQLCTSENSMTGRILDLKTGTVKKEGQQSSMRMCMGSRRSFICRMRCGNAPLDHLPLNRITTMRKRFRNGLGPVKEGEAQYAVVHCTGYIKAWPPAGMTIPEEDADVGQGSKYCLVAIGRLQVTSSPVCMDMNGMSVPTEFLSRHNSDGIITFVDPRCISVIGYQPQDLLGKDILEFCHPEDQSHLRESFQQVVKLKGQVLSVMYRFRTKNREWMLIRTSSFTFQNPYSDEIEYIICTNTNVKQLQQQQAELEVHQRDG

B1: SRE (dsDNA)
DNA 1: AAAAGGTACGTGACCAAAAAGA
DNA 2: TCTTTTTGGTCACGTACCTTTT
B1: binds [1].

B2: HRE (C/C) (dsDNA)
DNA 1: AGGCTGCGTACGTGCGGGTCGT
DNA 2: ACGACCCGCACGTACGCAGCCT
For B2, the binding signal [2] was ~2 fold higher affinity than HIF2a/ARNT and the binding signal [3] was ~1 reference (HIF1a/ARNT about 2-fold higher).

B3: NRE (dsDNA)
DNA 1: AAATGAGTCGTGACCAAAAATT
DNA 2: AATTTTTGGTCACGACTCATTT
B3: binds [4].
